These results are taken from publication doi:10.1101/2022.09.30.510402.

This assay addresses modified αM subunit in which the αMI-domain was deleted (I-less form of Mac-1) (human) (UniProt P11215). The experiment in a line: co-IP.

Sequence of CD47 (Q08722 19-323): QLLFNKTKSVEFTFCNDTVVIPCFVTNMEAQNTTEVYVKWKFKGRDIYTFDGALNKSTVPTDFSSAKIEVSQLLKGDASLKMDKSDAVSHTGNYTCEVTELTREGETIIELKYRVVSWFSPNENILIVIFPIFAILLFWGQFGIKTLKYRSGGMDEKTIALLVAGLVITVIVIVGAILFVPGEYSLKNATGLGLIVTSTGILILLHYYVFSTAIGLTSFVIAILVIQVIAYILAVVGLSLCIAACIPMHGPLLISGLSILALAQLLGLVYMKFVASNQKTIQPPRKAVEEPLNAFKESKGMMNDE

Substance “CD47 (from UniProt Q08722 19-323) (natural protein)” returned a fold more CD47 bound than by the whole integrin of 1.5.
